According to patent publication US20140274782A1, “AFFINITY REAGENTS AND METHODS FOR DETECTION, PURIFICATION, AND PROTEOMIC ANALYSIS OF METHYLATED PROTEINS” (The Board of Trustees of the Leland Stanford Junior …, priority 2013, published 2014):

T1: G9a and GLP (Homo sapiens, UniProt Q96KQ7+Q9H9B1)
T1 sequence (Q96KQ7 2-1210 limits assumed): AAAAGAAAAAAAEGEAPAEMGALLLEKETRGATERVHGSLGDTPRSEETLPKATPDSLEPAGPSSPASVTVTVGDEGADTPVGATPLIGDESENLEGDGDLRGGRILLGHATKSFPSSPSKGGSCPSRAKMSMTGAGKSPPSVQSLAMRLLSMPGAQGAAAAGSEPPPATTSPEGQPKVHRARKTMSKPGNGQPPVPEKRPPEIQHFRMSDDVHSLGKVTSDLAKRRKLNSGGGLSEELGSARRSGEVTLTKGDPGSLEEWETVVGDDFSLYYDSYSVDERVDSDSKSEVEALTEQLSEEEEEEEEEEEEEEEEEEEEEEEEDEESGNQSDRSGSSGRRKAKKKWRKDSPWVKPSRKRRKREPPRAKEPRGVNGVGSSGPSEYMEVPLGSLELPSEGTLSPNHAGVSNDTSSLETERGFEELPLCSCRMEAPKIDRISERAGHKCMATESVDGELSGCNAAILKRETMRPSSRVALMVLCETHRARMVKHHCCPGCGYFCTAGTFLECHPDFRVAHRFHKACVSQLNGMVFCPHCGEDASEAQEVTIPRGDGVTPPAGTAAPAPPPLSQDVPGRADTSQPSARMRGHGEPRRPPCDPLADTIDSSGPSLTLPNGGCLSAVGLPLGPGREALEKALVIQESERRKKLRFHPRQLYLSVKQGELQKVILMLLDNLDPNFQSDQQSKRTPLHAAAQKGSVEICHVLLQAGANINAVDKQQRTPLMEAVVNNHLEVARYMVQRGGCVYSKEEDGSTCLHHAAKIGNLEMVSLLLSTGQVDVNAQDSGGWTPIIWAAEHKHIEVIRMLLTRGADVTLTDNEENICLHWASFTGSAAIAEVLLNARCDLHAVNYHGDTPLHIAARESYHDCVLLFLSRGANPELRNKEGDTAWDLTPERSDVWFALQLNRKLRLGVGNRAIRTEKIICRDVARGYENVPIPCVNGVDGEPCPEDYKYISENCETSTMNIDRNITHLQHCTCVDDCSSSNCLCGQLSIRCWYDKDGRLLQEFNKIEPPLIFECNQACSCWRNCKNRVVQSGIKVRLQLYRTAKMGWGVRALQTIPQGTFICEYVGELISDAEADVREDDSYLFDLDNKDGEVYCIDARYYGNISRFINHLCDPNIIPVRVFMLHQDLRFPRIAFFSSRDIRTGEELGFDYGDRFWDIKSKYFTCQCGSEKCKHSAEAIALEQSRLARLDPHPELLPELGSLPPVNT
T1 sequence (Q9H9B1 2-1298 limits assumed): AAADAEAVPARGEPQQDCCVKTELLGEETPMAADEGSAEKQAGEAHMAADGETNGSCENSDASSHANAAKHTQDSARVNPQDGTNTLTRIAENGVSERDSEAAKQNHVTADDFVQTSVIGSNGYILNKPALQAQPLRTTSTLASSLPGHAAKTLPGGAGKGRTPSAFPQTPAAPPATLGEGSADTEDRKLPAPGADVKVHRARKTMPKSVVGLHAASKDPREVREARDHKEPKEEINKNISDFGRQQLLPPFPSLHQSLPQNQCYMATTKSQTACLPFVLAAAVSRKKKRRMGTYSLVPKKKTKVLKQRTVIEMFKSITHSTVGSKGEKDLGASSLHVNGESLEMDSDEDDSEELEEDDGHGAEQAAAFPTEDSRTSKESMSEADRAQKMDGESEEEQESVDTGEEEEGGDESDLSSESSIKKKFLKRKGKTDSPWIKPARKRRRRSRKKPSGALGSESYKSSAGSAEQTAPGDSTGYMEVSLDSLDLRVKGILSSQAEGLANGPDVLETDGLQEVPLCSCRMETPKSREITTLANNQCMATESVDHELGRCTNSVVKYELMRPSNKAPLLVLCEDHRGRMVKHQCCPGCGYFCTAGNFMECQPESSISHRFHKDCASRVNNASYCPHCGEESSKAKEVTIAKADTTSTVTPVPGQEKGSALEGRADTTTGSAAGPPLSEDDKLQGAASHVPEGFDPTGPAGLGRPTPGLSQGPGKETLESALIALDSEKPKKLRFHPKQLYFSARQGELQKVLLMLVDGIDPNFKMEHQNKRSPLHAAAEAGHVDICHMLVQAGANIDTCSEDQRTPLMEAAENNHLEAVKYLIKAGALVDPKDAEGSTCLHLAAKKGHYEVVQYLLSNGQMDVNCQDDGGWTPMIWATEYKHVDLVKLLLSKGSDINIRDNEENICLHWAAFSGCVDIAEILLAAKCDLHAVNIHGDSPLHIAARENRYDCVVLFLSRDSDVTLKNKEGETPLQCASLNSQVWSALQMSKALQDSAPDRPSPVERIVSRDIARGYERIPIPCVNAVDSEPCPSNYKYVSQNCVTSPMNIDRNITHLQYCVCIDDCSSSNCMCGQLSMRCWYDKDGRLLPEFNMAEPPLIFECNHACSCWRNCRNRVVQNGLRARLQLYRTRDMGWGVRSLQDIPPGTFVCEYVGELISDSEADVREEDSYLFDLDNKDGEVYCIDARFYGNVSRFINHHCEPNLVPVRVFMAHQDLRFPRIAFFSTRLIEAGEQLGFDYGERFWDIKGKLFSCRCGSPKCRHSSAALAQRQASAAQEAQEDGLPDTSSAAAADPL

B1: AMOT (protein, UniProt Q4VCS5 1-1084, looked up)
Angiomotin: MRNSEEQPSGGTTVLQRLLQEQLRYGNPSENRSLLAIHQQATGNGPPFPSGSGNPGPQSDVLSPQDHHQQLVAHAARQEPQGQEIQSENLIMEKQLSPRMQNNEELPTYEEAKVQSQYFRGQQHASVGAAFYVTGVTNQKMRTEGRPSVQRLNPGKMHQDEGLRDLKQGHVRSLSERLMQMSLATSGVKAHPPVTSAPLSPPQPNDLYKNPTSSSEFYKAQGPLPNQHSLKGMEHRGPPPEYPFKGMPPQSVVCKPQEPGHFYSEHRLNQPGRTEGQLMRYQHPPEYGAARPAQDISLPLSARNSQPHSPTSSLTSGGSLPLLQSPPSTRLSPARHPLVPNQGDHSAHLPRPQQHFLPNQAHQGDHYRLSQPGLSQQQQQQQQQHHHHHHHQQQQQQQPQQQPGEAYSAMPRAQPSSASYQPVPADPFAIVSRAQQMVEILSDENRNLRQELEGCYEKVARLQKVETEIQRVSEAYENLVKSSSKREALEKAMRNKLEGEIRRMHDFNRDLRERLETANKQLAEKEYEGSEDTRKTISQLFAKNKESQREKEKLEAELATARSTNEDQRRHIEIRDQALSNAQAKVVKLEEELKKKQVYVDKVEKMQQALVQLQAACEKREQLEHRLRTRLERELESLRIQQRQGNCQPTNVSEYNAAALMELLREKEERILALEADMTKWEQKYLEENVMRHFALDAAATVAAQRDTTVISHSPNTSYDTALEARIQKEEEEILMANKRCLDMEGRIKTLHAQIIEKDAMIKVLQQRSRKEPSKTEQLSCMRPAKSLMSISNAGSGLLSHSSTLTGSPIMEEKRDDKSWKGSLGILLGGDYRAEYVPSTPSPVPPSTPLLSAHSKTGSRDCSTQTERGTESNKTAAVAPISVPAPVAAAATAAAITATAATITTTMVAAAPVAVAAAAAPAAAAAPSPATAAATAAAVSPAAAGQIPAAASVASAAAVAPSAAAAAAVQVAPAAPAPVPAPALVPVPAPAAAQASAPAQTQAPTSAPAVAPTPAPTPTPAVAQAEVPASPATGPGPHRLSIPSLTCNPDKTDGPVFHSNTLERKTPIQILGQEPDAEMVEYLI
B2: CPSF1 (protein, UniProt Q10570 1-1443, looked up)
Cleavage and polyadenylation …: MYAVYKQAHPPTGLEFSMYCNFFNNSERNLVVAGTSQLYVYRLNRDAEALTKNDRSTEGKAHREKLELAASFSFFGNVMSMASVQLAGAKRDALLLSFKDAKLSVVEYDPGTHDLKTLSLHYFEEPELRDGFVQNVHTPRVRVDPDGRCAAMLVYGTRLVVLPFRRESLAEEHEGLVGEGQRSSFLPSYIIDVRALDEKLLNIIDLQFLHGYYEPTLLILFEPNQTWPGRVAVRQDTCSIVAISLNITQKVHPVIWSLTSLPFDCTQALAVPKPIGGVVVFAVNSLLYLNQSVPPYGVALNSLTTGTTAFPLRTQEGVRITLDCAQATFISYDKMVISLKGGEIYVLTLITDGMRSVRAFHFDKAAASVLTTSMVTMEPGYLFLGSRLGNSLLLKYTEKLQEPPASAVREAADKEEPPSKKKRVDATAGWSAAGKSVPQDEVDEIEVYGSEAQSGTQLATYSFEVCDSILNIGPCANAAVGEPAFLSEEFQNSPEPDLEIVVCSGHGKNGALSVLQKSIRPQVVTTFELPGCYDMWTVIAPVRKEEEDNPKGEGTEQEPSTTPEADDDGRRHGFLILSREDSTMILQTGQEIMELDTSGFATQGPTVFAGNIGDNRYIVQVSPLGIRLLEGVNQLHFIPVDLGAPIVQCAVADPYVVIMSAEGHVTMFLLKSDSYGGRHHRLALHKPPLHHQSKVITLCLYRDLSGMFTTESRLGGARDELGGRSGPEAEGLGSETSPTVDDEEEMLYGDSGSLFSPSKEEARRSSQPPADRDPAPFRAEPTHWCLLVRENGTMEIYQLPDWRLVFLVKNFPVGQRVLVDSSFGQPTTQGEARREEATRQGELPLVKEVLLVALGSRQSRPYLLVHVDQELLIYEAFPHDSQLGQGNLKVRFKKVPHNINFREKKPKPSKKKAEGGGAEEGAGARGRVARFRYFEDIYGYSGVFICGPSPHWLLVTGRGALRLHPMAIDGPVDSFAPFHNVNCPRGFLYFNRQGELRISVLPAYLSYDAPWPVRKIPLRCTAHYVAYHVESKVYAVATSTNTPCARIPRMTGEEKEFETIERDERYIHPQQEAFSIQLISPVSWEAIPNARIELQEWEHVTCMKTVSLRSEETVSGLKGYVAAGTCLMQGEEVTCRGRILIMDVIEVVPEPGQPLTKNKFKVLYEKEQKGPVTALCHCNGHLVSAIGQKIFLWSLRASELTGMAFIDTQLYIHQMISVKNFILAADVMKSISLLRYQEESKTLSLVSRDAKPLEVYSVDFMVDNAQLGFLVSDRDRNLMVYMYLPEAKESFGGMRLLRRADFHVGAHVNTFWRTPCRGATEGLSKKSVVWENKHITWFATLDGGIGLLLPMQEKTYRRLLMLQNALTTMLPHHAGLNPRAFRMLHVDRRTLQNAVRNVLDGELLNRYLYLSTMERSELAKKIGTTPDIILDDLLETDRVTAHF
B3: KHSRP (protein, UniProt Q92945 2-711, looked up)
Far upstream element-binding …: SDYSTGGPPPGPPPPAGGGGGAGGAGGGPPPGPPGAGDRGGGGPGGGGPGGGSAGGPSQPPGGGGPGIRKDAFADAVQRARQIAAKIGGDAATTVNNSTPDFGFGGQKRQLEDGDQPESKKLASQGDSISSQLGPIHPPPRTSMTEEYRVPDGMVGLIIGRGGEQINKIQQDSGCKVQISPDSGGLPERSVSLTGAPESVQKAKMMLDDIVSRGRGGPPGQFHDNANGGQNGTVQEIMIPAGKAGLVIGKGGETIKQLQERAGVKMILIQDGSQNTNVDKPLRIIGDPYKVQQACEMVMDILRERDQGGFGDRNEYGSRIGGGIDVPVPRHSVGVVIGRSGEMIKKIQNDAGVRIQFKQDDGTGPEKIAHIMGPPDRCEHAARIINDLLQSLRSGPPGPPGGPGMPPGGRGRGRGQGNWGPPGGEMTFSIPTHKCGLVIGRGGENVKAINQQTGAFVEISRQLPPNGDPNFKLFIIRGSPQQIDHAKQLIEEKIEGPLCPVGPGPGGPGPAGPMGPFNPGPFNQGPPGAPPHAGGPPPHQYPPQGWGNTYPQWQPPAPHDPSKAAAAAADPNAAWAAYYSHYYQQPPGPVPGPAPAPAAPPAQGEPPQPPPTGQSDYTKAWEEYYKKIGQQPQQPGAPPQQDYTKAWEEYYKKQAQVATGGGPGAPPGSQPDYSAAWAEYYRQQAAYYGQTPGPGGPQPPPTQQGQQQAQ

Molecular target: T1, G9a and GLP
Test: Triple SILAC pull-down after UNC0638 treatment of 293T cells, DMSO/UNC0638 ratio of protein captured by 3×MBT;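 further: mass spectrometry (Q-Exactive) SILAC quantitation, DMSO/UNC0638 ratio computed after subtracting 3×MBTD355N mutant pull-down background, only proteins with at least twofold 3×MBT over mutant signal considered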
Assay type: cell-based
Set-up: endogenous in cells; host or cells: HEK 293T
Details: SILAC ratio DMSO/UNC0638 of protein pulled down with 3xMBT; UNC0638 in heavy SILAC media

Row | Relative to UNC0638 UNC Heavy | Molecule
1 | −0.03 log base 2 | B1
2 | 0.17 log base 2 | B2
3 | 0.17 log base 2 | B3

Same assay, conditions: SILAC ratio DMSO/UNC0638 of protein pulled down with 3xMBT; UNC0638 in light SILAC media

Row | Relative to UNC0638 UNC Light | Molecule
4 | 0.39 log base 2 | B1
5 | 0.15 log base 2 | B2
6 | 0.16 log base 2 | B3

Same assay, conditions: average of UNC Light and UNC Heavy experiments

Row | Relative to UNC0638 Average | Molecule
7 | 0.18 log base 2 | B1
8 | 0.16 log base 2 | B2
9 | 0.16 log base 2 | B3

System: 3×MBT domain of L3MBTL1
Test: Triple SILAC pull-down, 3xMBT/3xMBTD355N ratio (cytoplasmic, nuclear and chromatin fractions of 293T cells);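 further: proteins quantified with MaxQuant, requiring at least two unique peptides and quantification in both label directions, normalized to the mean of proteins from a digested loading control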
Assay type: binding, human
Details: SILAC ratio, pull-down 3xMBT vs 3xMBTD355N; experiment with UNC0638 in heavy SILAC media
Description: For stable isotope labeling by amino acids in cell culture (SILAC) experiments HEK 293T cells were grown for at least six doublings in DMEM for SILAC supplemented with 10% dialyzed fetal bovine serum (FBS), 230 mg/L L-proline and either 100 mg/L each of L-lysine and L-arginine (“light” medium), D4-L-lysine and ^13C6-L-arginine (“medium” media), or ^13C6^15N2-L-lysine and ^13C6^15N4-L-arginine (Thermo Scientific). Heavy methyl labeling used DMEM without L-Methionine or L-Cysteine supplemented with D3^13C-L-Methionine (Sigma), L-Cysteine (Sigma) and 10% dialyzed FBS.
For UNC0638 treatments cells were treated for 24 hours with UNC0638 at 2.5 μM or DMSO vehicle control. One experiment treated cells in light media with UNC0638, the other treated cells in heavy media. Both experiments included cells in medium media treated with DMSO for negative control pull-down with 3×MBTD355N.
UNC0638 treatment experiments used a Q-Exactive mass spectrometer (ThermoFisher Scientific). A 25 cm HPLC column with 3 μm Reliasil (Orochem) was used to separate peptides over a 4 hour gradient from 0 to 75% acetonitrile. Ions were generated using a custom nanospray source flowing at 250 nL/minute. Mass spectrometry settings were 70,000 MS1 resolution, data dependent selection of up to 20 precursor ions per cycle, dynamic exclusion of 30 seconds and isolation window of 2 m/z. The nuclear fraction from the experiment using UNC0638 on cells in heavy media was additionally analyzed by 2D HPLC-MS/MS as described earlier.
Peptides were identified and quantified using MaxQuant version 1.2.2.5 (Cox and Mann, supra) with the following changes to default settings: mono- and di-methylation of lysine, and oxidation of methionine, and N-terminal acetylation as variable modifications, disabled “I=L”, up to three modifications per peptide, one missed cleavage, maximum charge of 5. Protein and peptide FDR were set to 1%, and proteins were filtered post-hoc for at least two unique peptides. Proteins were excluded from an experiment if they were not quantified in both labeling directions. Because FDR is unreliable for small numbers of peptides the modification site FDR was set to 10% and all methylated peptides were manually verified. […] Quantitative protein data was normalized to the mean value among proteins identified by analyzing 50 ng of digested loading control.
For UNC0638 experiments the treated vs. untreated ratio was determined by subtracting the value from 3×MBTD355N prior to dividing values from the light and heavy channels. Only proteins showing a two-fold signal to background ratio (3×MBT/3×MBTD355N) were evaluated as potential G9a/GLP substrates.

Row | Molecule | 3xMBT/D355N UNC Heavy
10 | B1 | 2.95 log base 2
11 | B2 | 2.44 log base 2
12 | B3 | 3.34 log base 2

Same assay, conditions: SILAC ratio, pull-down 3xMBT vs 3xMBTD355N; experiment with UNC0638 in light SILAC media

Row | Molecule | 3xMBT/D355N UNC Light
13 | B1 | 2.44 log base 2
14 | B2 | 3.15 log base 2
15 | B3 | 3.18 log base 2
